Assay results: patent publication US20060265769A1 (BETH ISRAEL DEACONESS MEDICAL CENTER, published 2006)

B1: Gab2HA (other, not shown: small tags and cut ends)
chain: MSGGGGDDVVCTGWLRKSPPEKKLRRYAWKKRWFILRSGRMSGDPDVLEYYKNEHSKKPLRIINLNLCEQVDAGLTFNKKELQDSFVFDIKTSERTFYLVAETEADMNKWVQSICQICGFNQAEESTDSLRNLSSASHGPRSSPAEFSSSQHLLRERKSSAPSHSSQPTLFTFEPPVSSHMQPTLSTSAPQEYLYLHQCISRRTENARSASFSQGTRQKSDTAVQKLAQSNGHCINGVGGQVHGFYSLPKPSRHNTEFKDSTYDLPRSLASHGHTKSSLTGSETDNEDVYTFKMPSNTLCRELGDLLVDNMDVPTTPLSAYQIPRTFTLDKNHNAMTVATPGDSAIAPPPRPPKPSQAETSQWGSIQQRPPISENSRSVAATIPRRNTLPAMDNSRLHRASSCETYEYPARGSGESASWSAEPPGKTAVGRSNSASSDDNYVPMNPGSSTLLAMERPGDNSQSVYIPMSPGPHHFDPLGYPSTALPIHRGPSRGSEIQPPPVNRNLKPDRKAKPTPLDLRNNTVIDELPFKSPVTKSWSRINSHTFNSSSSQYCRPISTQSITSTDSGDSEENYVPMQNPVSASPVPSGTNSPAPKKSTGSVDYLALDFQPGSPSPHRKPSTSSVTSDEKVDYVQVDKEKTQALQNTMQEWTDVRQSSEPSKGAKL
modifications: tyrosyl phosphorylated upon IL-3 stimulation
B2: Crk (other, UniProt Q64010 2-304, looked up)
chain: AGNFDSEERSSWYWGRLSRQEAVALLQGQRHGVFLVRDSSTSPGDYVLSVSENSRVSHYIINSSGPRPPVPPSPAQPPPGVSPSRLRIGDQEFDSLPALLEFYKIHYLDTTTLIEPVARSRQGSGVILRQEEAEYVRALFDFNGNDEEDLPFKKGDILRIRDKPEEQWWNAEDSEGKRGMIPVPYVEKYRPASASVSALIGGNQEGSHPQPLGGPEPGPYAQPSVNTPLPNLQNGPIYARVIQKRVPNAYDKTALALEVGELVKVTKINVSGQWEGECNGKRGHFPFTHVRLLDQQNPDEDFS
B3: Crk-II (other, UniProt Q64010-1 2-304, looked up)
chain: B2 chain
B4: Crk-L (other, UniProt P47941 1-303, looked up)
chain: MSSARFDSSDRSAWYMGPVTRQEAQTRLQGQRHGMFLVRDSSTCPGDYVLSVSENSRVSHYIINSLPNRRFKIGDQEFDHLPALLEFYKIHYLDTTTLIEPAPRYPSPPVGSVSAPNLPTAEENLEYVRTLYDFPGNDAEDLPFKKGELLVIIEKPEEQWWSARNKDGRVGMIPVPYVEKLVRSSPHGKHGNRNSNSYGIPEPAHAYAQPQTTTPLPTVASTPGAAINPLPSTQNGPVFAKAIQKRVPCAYDKTALALEVGDIVKVTRMNINGQWEGEVNGRKGLFPFTHVKIFDPQNPDDNE

Columns and labels:
SHP-2 = target: T1, SHP-2 (UniProt P35235 2-593); experiment: cell-based or functional assay
T1 sequence (looked up): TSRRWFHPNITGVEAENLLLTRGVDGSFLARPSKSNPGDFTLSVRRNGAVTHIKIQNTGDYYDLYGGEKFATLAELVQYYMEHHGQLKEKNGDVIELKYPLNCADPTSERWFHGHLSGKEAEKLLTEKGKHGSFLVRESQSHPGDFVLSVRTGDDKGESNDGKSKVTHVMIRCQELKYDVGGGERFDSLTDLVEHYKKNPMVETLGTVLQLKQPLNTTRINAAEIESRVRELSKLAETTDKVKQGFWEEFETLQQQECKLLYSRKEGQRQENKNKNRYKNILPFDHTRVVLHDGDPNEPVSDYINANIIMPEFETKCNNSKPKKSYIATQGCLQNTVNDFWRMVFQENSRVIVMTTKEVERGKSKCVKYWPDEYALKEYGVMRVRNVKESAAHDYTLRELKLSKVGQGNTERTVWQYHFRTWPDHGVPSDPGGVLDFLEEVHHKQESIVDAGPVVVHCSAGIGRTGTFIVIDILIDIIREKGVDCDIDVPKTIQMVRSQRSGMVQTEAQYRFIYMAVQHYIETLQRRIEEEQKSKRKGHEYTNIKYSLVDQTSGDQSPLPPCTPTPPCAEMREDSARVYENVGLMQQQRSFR

Gab2 = target: T2, Gab2 (mouse, UniProt Q9Z1S8 1-665, tyrosyl phosphorylated upon stimulation (Y604 and Y633 said to be highly phosphorylated)); experiment: co-immunoprecipitation and immunoblotting, BaF3 cells
T2 construct: Scaffolding protein; Endogenous protein in lysates of BaF3, BAC1.2F5 and P210BCR-ABL BaF3 cells; also called p97; p97/Gab2

Gab2HA = target: B1; experiment: as above

With B1 as the binder, how does the “basal c-fos luciferase activity in BaF3 cells” value (SHP-2) read?
The value was roughly 2 fold.

Does B2 bind (Gab2)?
Result: no binding

Does B2 bind (Gab2HA)?
Result: no binding

Does B3 bind (Gab2)?
Result: no binding

Does B3 bind (Gab2HA)?
Result: no binding

Which results are given for B4?
binding result (Gab2): no binding; binding result (Gab2HA): no binding
